Laboratory results as given in the nanobody polyreactivity screen of Harvey et al. (2022).

Assay: yeast display, Sf9 membrane polyspecificity reagent, FACS + sequencing; frameworks hold sequencing errors
Outline: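 Synthetic nanobody libraries on Saccharomyces cerevisiae BJ5465 were galactose-induced for 36–48 hours, stained 1 hour at 4 °C with 10% biotinylated, detergent-solubilized Sf9 membrane reagent and enriched on streptavidin microbeads. FACS then separated cells into low and high (top ~1%) gates by anti-HA (expression) and streptavidin (reagent binding) fluorescence. Genes were colony-PCR amplified, MiSeq 2 × 250 sequenced and CDR-length filtered. A clone's polyreactivity label is that of its gate of origin.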

Sequence | polyreactivity (PSR sort gate)
QVQLVESGGGLVQAGGSLRLSCAASGGTFARNALGWYRQAPGKERELVAAIRGGVSTNYADSVKGRFTISRDNAKNTVYLQMNSLKPEDTAVYYCNASPPTLEGYWGQGTQVTVSS | low polyreactivity
QVQLVESGGGLVQAGGSLRLSCAASGGTFDTYDMGWYRQAPGKERELVAAIRFGDGTTYYADSVKGRFTISRDNAKNTVYLQMNSLKPEDTAVYYCNTDDPGNYWYAEYDYWGQGTQVTVSS | low polyreactivity
QVQLVESGGGLVQAGGSLRLSCAASGGTFEFYTMGGYRQAPGKERELVAVINASGDSTYYADSVKGRFTISRDNAKNTVYLQMNSLKPEYTAVYYCAADHRGEYDYWGQGTQVNVSS | low polyreactivity
QVQLVESGGGLVQAGGSLRLSCAASGGTFEFYTMGWYRQAPGKERELVAVINASGDSTYYADSVKGRFTISRDNAKNTVYLQMNSLKPEDTAVYYCAADHRGEYDYWGQGTQVTVSS | low polyreactivity
QVQLVESGGGLVQAGGSLRLSCAASGGTFENYAMGWYRQPPGKERELVAAISSGGSTNYADSVKGRFTISRDNAKNTVYLQMNSLKQEDTAVYYCARYRVWGSTGHKLFHDDYWGQGTQVTVSS | low polyreactivity
QVQLVESGGGLVQAGGSLRLSCAASGGTFFAYAMGWYRQAPGERELVAAISWSGDSTYYADSVKGRFTISRDNAKNTVYLQMNSLKPEDTAVYYCAADYGFEYYYWGQGTQVTVSS | high polyreactivity
QVQLVESGGGLVQAGGSLRLSCAASGGTFFGYAMGWYRQAPGKERELVAAIRWSDGRTYYADSVKGRFTISRDNAKNTVYLQMNSLKPEDTAVYDCNADDARLFDYWGQGTQVTVSS | low polyreactivity
QVQLVESGGGLVQAGGSLRLSCAASGGTFGFNAMGWYRPAPGKERELVAAISSSGGRTYYADSVNGRFTISRDNAKNNVYLQMMSLKEEDTAVYYCAARVQVGGRSYVGYYYWGKGTQVTVSS | high polyreactivity
QVQLVESGGGLVQAGGSLRLSCAASGGTFGFYAMGWYRQAPGKERELVAAISWSGVGTYYADSVKGRFTISRDNAKNTVYLQMNSLKPEATAVYYCAAKQYTQKISSPGTILRYYYWGQGTQVTVSS | high polyreactivity
QVQLVESGGGLVQAGGSLRLSCAASGGTFGSNAMGWYRQAPGKERELVARISGRGGRTYYADSVKGRFTISRDNAKNTVYLQMNSLKPEDTAVYYCAATYIIWGQGTQVNVSS | high polyreactivity
QVQLVESGGGLVQAGGSLRLSCAASGGTFGSNTMGWYRQAPGKERELVAAITSGVSTNYADSVKGRFTISRDNAKNTVYLQMNSLKPEDTAVYYCAKDLWSEEYETIITSYGFDYWGQGTQVTVSS | low polyreactivity
QVQLVESGGGLVQAGGSLRLSCAASGGTFGSYAMGWYRQAPGKERELVAGITGSGGITKYADSVKGRFTISRDNAKNTVYLQMNSLKPEDTAVYYCNADYSVWYIRLSAYFTYDYWGQGTQVTVSS | high polyreactivity
QVQLVESGGGLVQAGGSLRLSCAASGGTFGYYAMGWYIQAPGTERELVAAISWSGGSTYYADSVKGRFTISRDNAKNTVYLQMNSLKAEDTAVYYCNAVTRFGYVKFDYWGQGTQVTVSS | high polyreactivity
QVQLVESGGGLVQAGGSLRLSCAASGGTFGYYTMGWYRPAPGKERELVSAISSGGGTDYADSVKGRFTISRDNAKNTVYLQMNSLKPEDTAVYYCNAKWLEWHYVFLPSYTMDYWGQGTQVTVSS | low polyreactivity
QVQLVESGGGLVQAGGSLRLSCAASGGTFIRYAMGWYRQAPGKERELVAAISSSGGSTYYADSVKGRFTISRDNAKNTVYLQMNSLKPEDTAVYYCNGRQSRFKYDYWGQGTQVTVSS | high polyreactivity
QVQLVESGGGLVQAGGSLRLSCAASGGTFISYAMGWYRQAPGKERELVAAISRGGSSTYYADSVKGRFTISRDNAKNTVYLQMNSLKPEDTAVYYCNKAYHRRDSEFGYWGQGTQVTVSS | high polyreactivity

Sequence | polyreactivity (PSR sort gate)
QVQLVESGGGLVQAGGSLRLSCAASGGTFKYYTMGWYRQAPGKERELVAAISSGGITYYADSVKGRFTISRDNAKNTVYLQMNSLKPEDTAVYYCNVVSYYIAGGWYEGDYWGQGTQVTVSS | low polyreactivity
QVQLVESGGGLVQAGGSLRLSCAASGGTFLGNAMGWYRQAPGKERELVADITSGGSTNYADSVKGRFTISRDNAKNTVYLQMNSLKPEDTAVDYCNAEYSTSTVWEYDYWGQGTQVTVSS | low polyreactivity
QVQLVESGGGLVQAGGSLRLSCAASGGTFLPNAMGWYRQAPWKERELVAAITSGGRTNYADSVKGRFTISRDNAKNTVYFQMNSLKPEDTAVYYCAARVRGYPTRPIPYYYWGQGTQVTVSS | high polyreactivity
QVQLVESGGGLVQAGGSLRLSCAASGGTFNHYAMGWYRQAPGKERELVSSITNGASTYYADSVKGRFTISRDNAKNTVYLQMNSLKPEDTAVYYCAARTAVGPIRSYWYDYWGQGTQVTVSS | low polyreactivity
QVQLVESGGGLVQAGGSLRLSCAASGGTFNRYAMGWYRQAPGKERELVAAISNGGGRTYYADSVKGRFTISRDNAKNTVYLQMNSLKPEDTAVYYCAKDLTRTSYRSAFDYWGQGTQVTVSS | high polyreactivity
QVQLVESGGGLVQAGGSLRLSCAASGGTFNSNAMGWYRQAPGKEREFVAAISSSGGSTYYADSVKGRFTISRDNAKNTVYLQMNSLKPEDTAVYYCAKRYPYPNGRFRFGYWGQGTQVTVSS | high polyreactivity
QVQLVESGGGLVQAGGSLRLSCAASGGTFNSNAMGWYRQAPGKERELVAGITSGSDTSYADSVKGRFTISRDNAKNTVYLQMNSLKPEDSAVYYCATRDYPLYGYWGQGTQVTVSS | low polyreactivity
QVQLVESGGGLVQAGGSLRLSCAASGGTFPTNAMGWYRQATGKERELVAAITSSGVRTYYADSVKGRFTISRDNAKNTVYLQLNSLKPEDTAVYYCKAVTRYVRLTDDDYWGQGTQVTVSS | high polyreactivity
QVQLVESGGGLVQAGGSLRLSCAASGGTFPYYAMGWYRQAPGKERELVADISGTDGSTYYADSVKGRFTISRDNAKNTVYLQMNSLKPEDTAVYYCAAEEVSWNGTGDYWGQGTQVTVSS | high polyreactivity
QVQLVESGGGLVQAGGSLRLSCAASGGTFQINAMGWYIQAPGKERELVAAISRSGGSTSYADSVKGRFTISRDNAKNTVYLQMNSLKPQDTAVYYCNKRVRATAWYDYWGQGTQVTVSS | high polyreactivity
QVQLVESGGGLVQAGGSLRLSCAASGGTFRAYVMGWYRQAPGKERELVAAISRSGTRTYYADSVKGRFTISRDNAKNTVYLQMNSLKPEDTAVYYCAAQAGVYYDYEYWGQGTLVTVSS | high polyreactivity
QVQLVESGGGLVQAGGSLRLSCAASGGTFRKYTMGWYRQAPGKERELVAAISSTGSSTYYADSVKGRFTISRDNAKNTVYLQMNSLKPEDTAVYYCAADVFSGYYWPVLEDHWGQGTQVTVSS | high polyreactivity
QVQLVESGGGLVQAGGSLRLSCAASGGTFRNNAMGWYIQAPGKERELVAAISSSGTSTYYADSVKGRFTISRDNAKNTVYLQMNSLKPEDTAVYYCNADALGSPWWDHMDYWGQGTQVTVSS | low polyreactivity
QVQLVESGGGLVQAGGSLRLSCAASGGTFRRYAMGWYRQAPGKERELVAAISWTGGSTYYADSVKGRFTISRDNAKNTVYLQMNSLKPEDTGVYYCAAVGSSSSKGGYWGQGTQVTVSS | high polyreactivity
QVQLVESGGGLVQAGGSLRLSCAASGGTFRTYTMGWYRQAPGRVRELVAGISSRGGSTYYADSVKGRFTISRDNAKKTLYLQMNSLKPEDTAVYNCAVRHLNKRRDDYWGQGTQVTVSS | high polyreactivity
QVQLVESGGGLVQAGGSLRLSCAASGGTFRTYVMGWYRQAPGKERELVAAISVSGGRTYYADSVKGRFTISRDNAKTTVYLQMNSLKPEDTAVYYCAAYWHGFFKYWEMGYWGQGTQVTVSS | high polyreactivity
